Results reported in paper PMC9482650, “Quantitative fragmentomics allow affinity mapping of interactomes” (Nature Communications, 2022).

target: GRIP2_7, Q9C0E4; experiment: holdup assay; parameters: key: below the threshold = too weak to quantify, mostly under pKd 3.1 to 4; conditions: plain residues with an end cap or a label only (N-terminal biotin on a linker: ado-ado)
Sequence (Q9C0E4 934-1023): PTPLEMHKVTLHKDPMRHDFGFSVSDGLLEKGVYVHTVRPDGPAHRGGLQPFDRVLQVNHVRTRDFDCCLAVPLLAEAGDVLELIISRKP

Row | Binder | pKd
1 | SPDRDRESIV [SCN5A, Q14524] | below the threshold

target: CASK, O14936; experiment: holdup assay; parameters: key: below the threshold = too weak to quantify, mostly under pKd 3.1 to 4; conditions: plain residues with an end cap or a label only (N-terminal biotin on a linker: ado-ado)
Sequence (O14936 487-570): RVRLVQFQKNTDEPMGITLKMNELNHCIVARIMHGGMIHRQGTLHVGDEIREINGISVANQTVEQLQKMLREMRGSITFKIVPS

Row | Binder | pKd
2 | SPDRDRESIV [SCN5A, Q14524] | below the threshold

target: T1, SIPA1L2, Q9P2F8; experiment: holdup assay; parameters: key: below the threshold = too weak to quantify, mostly under pKd 3.1 to 4; conditions: plain residues with an end cap or a label only (N-terminal biotin on a linker: ado-ado)
T1 sequence (Q9P2F8 945-1036, limits assumed, looked up): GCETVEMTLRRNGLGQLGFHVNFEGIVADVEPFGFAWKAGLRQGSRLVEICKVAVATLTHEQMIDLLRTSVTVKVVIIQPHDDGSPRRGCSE

Row | Binder | pKd
3 | SPDRDRESIV [SCN5A, Q14524] | below the threshold

target: FRMPD3, Q5JV73; experiment: holdup assay; parameters: key: below the threshold = too weak to quantify, mostly under pKd 3.1 to 4; conditions: plain residues with an end cap or a label only (N-terminal biotin on a linker: ado-ado)
Sequence (Q5JV73 12-100): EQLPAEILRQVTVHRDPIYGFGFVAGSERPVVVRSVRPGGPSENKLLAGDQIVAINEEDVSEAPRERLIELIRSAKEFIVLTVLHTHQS

Row | Binder | pKd
4 | SPDRDRESIV [SCN5A, Q14524] | below the threshold

target: T2, DFNB31_1, Q9P202; experiment: holdup assay; parameters: key: below the threshold = too weak to quantify, mostly under pKd 3.1 to 4; conditions: plain residues with an end cap or a label only (N-terminal biotin on a linker: ado-ado)
T2 sequence (Q9P202 135-233, limits assumed, looked up): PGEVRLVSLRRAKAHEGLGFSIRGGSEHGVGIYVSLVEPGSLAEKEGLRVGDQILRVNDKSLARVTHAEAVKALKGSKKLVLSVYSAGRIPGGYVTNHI

Row | Binder | pKd
5 | SPDRDRESIV [SCN5A, Q14524] | 3.58

target: MAGI1_2, Q96QZ7; experiment: holdup assay; parameters: key: below the threshold = too weak to quantify, mostly under pKd 3.1 to 4; conditions: plain residues with an end cap or a label only (N-terminal biotin on a linker: ado-ado)
Sequence (Q96QZ7 456-580): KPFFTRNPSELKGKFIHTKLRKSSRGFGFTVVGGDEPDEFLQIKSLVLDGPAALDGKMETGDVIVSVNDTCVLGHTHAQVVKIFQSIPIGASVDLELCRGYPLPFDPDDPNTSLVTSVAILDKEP

Row | Binder | pKd
6 | SPDRDRESIV [SCN5A, Q14524] | 3.51

target: T3, ARHGEF11, O15085; experiment: holdup assay; parameters: key: below the threshold = too weak to quantify, mostly under pKd 3.1 to 4; conditions: plain residues with an end cap or a label only (N-terminal biotin on a linker: ado-ado)
T3 sequence (O15085 42-136, limits assumed, looked up): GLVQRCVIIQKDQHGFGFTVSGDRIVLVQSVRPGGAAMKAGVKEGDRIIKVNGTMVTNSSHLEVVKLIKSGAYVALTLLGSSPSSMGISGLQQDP

Row | Binder | pKd
7 | SPDRDRESIV [SCN5A, Q14524] | 3.51

target: T4, SNTG2, Q9NY99; experiment: holdup assay; parameters: key: below the threshold = too weak to quantify, mostly under pKd 3.1 to 4; conditions: plain residues with an end cap or a label only (N-terminal biotin on a linker: ado-ado)
T4 sequence (Q9NY99 68-166, limits assumed, looked up): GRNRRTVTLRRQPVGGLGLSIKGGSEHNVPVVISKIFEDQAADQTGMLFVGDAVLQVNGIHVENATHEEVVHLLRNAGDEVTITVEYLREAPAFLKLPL

Row | Binder | pKd
8 | SPDRDRESIV [SCN5A, Q14524] | 4.69

target: T5, RADIL, Q96JH8; experiment: holdup assay; parameters: key: below the threshold = too weak to quantify, mostly under pKd 3.1 to 4; conditions: plain residues with an end cap or a label only (N-terminal biotin on a linker: ado-ado)
T5 sequence (Q96JH8 971-1071, limits assumed, looked up): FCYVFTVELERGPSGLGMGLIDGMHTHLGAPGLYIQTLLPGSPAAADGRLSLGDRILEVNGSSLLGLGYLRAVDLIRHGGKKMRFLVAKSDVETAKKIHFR

Row | Binder | pKd
9 | SPDRDRESIV [SCN5A, Q14524] | 4.12

target: Inadl_5, Q8NI35; experiment: holdup assay; parameters: key: below the threshold = too weak to quantify, mostly under pKd 3.1 to 4; conditions: plain residues with an end cap or a label only (N-terminal biotin on a linker: ado-ado)
Sequence (Q8NI35 673-780): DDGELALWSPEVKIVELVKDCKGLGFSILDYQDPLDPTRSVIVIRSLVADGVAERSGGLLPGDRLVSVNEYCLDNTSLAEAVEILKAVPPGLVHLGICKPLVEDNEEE

Row | Binder | pKd
10 | SPDRDRESIV [SCN5A, Q14524] | below the threshold

target: T6, MPP2, Q14168; experiment: holdup assay; parameters: key: below the threshold = too weak to quantify, mostly under pKd 3.1 to 4; conditions: plain residues with an end cap or a label only (N-terminal biotin on a linker: ado-ado)
T6 sequence (Q14168 180-250, limits assumed, looked up): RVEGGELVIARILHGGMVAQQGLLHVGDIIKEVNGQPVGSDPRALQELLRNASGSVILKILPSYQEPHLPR

Row | Binder | pKd
11 | SPDRDRESIV [SCN5A, Q14524] | below the threshold

target: DLG5_1, Q8TDM6; experiment: holdup assay; parameters: key: below the threshold = too weak to quantify, mostly under pKd 3.1 to 4; conditions: plain residues with an end cap or a label only (N-terminal biotin on a linker: ado-ado)
Sequence (Q8TDM6 617-713): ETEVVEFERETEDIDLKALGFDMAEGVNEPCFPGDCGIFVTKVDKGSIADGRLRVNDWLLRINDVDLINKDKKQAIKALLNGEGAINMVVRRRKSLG

Row | Binder | pKd
12 | SPDRDRESIV [SCN5A, Q14524] | below the threshold

target: DLG1_2, Q12959; experiment: holdup assay; parameters: key: below the threshold = too weak to quantify, mostly under pKd 3.1 to 4; conditions: plain residues with an end cap or a label only (N-terminal biotin on a linker: ado-ado)
Sequence (Q12959 314-412): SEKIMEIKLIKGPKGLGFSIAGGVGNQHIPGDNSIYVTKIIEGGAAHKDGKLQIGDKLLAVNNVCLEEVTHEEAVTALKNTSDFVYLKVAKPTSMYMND

Row | Binder | pKd
13 | SPDRDRESIV [SCN5A, Q14524] | 4.86

target: MAST1, Q9Y2H9; experiment: holdup assay; parameters: key: below the threshold = too weak to quantify, mostly under pKd 3.1 to 4; conditions: plain residues with an end cap or a label only (N-terminal biotin on a linker: ado-ado)
Sequence (Q9Y2H9 962-1065): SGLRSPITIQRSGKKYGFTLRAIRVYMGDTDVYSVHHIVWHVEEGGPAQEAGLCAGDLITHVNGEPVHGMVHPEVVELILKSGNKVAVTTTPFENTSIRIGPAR

Row | Binder | pKd
14 | SPDRDRESIV [SCN5A, Q14524] | 3.83

target: T7, GRIP1_3, Q9Y3R0; experiment: holdup assay; parameters: key: below the threshold = too weak to quantify, mostly under pKd 3.1 to 4; conditions: plain residues with an end cap or a label only (N-terminal biotin on a linker: ado-ado)
T7 sequence (Q9Y3R0 247-346, limits assumed, looked up): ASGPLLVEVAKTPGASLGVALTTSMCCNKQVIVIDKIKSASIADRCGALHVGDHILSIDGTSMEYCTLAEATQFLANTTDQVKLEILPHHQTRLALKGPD

Row | Binder | pKd
15 | SPDRDRESIV [SCN5A, Q14524] | below the threshold

target: GIPC2, Q8TF65; experiment: holdup assay; parameters: key: below the threshold = too weak to quantify, mostly under pKd 3.1 to 4; conditions: plain residues with an end cap or a label only (N-terminal biotin on a linker: ado-ado)
Sequence (Q8TF65 112-203): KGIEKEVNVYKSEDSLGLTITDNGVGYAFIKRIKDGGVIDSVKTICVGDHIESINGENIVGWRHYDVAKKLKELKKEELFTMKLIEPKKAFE

Row | Binder | pKd
16 | SPDRDRESIV [SCN5A, Q14524] | 4.06

target: T8, LIN7C, Q9NUP9; experiment: holdup assay; parameters: key: below the threshold = too weak to quantify, mostly under pKd 3.1 to 4; conditions: plain residues with an end cap or a label only (N-terminal biotin on a linker: ado-ado)
T8 sequence (Q9NUP9 88-185, limits assumed, looked up): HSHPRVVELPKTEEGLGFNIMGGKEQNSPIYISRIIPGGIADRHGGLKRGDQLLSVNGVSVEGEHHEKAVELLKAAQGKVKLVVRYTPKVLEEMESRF

Row | Binder | pKd
17 | SPDRDRESIV [SCN5A, Q14524] | 4.12

target: MAGI2_4, Q86UL8; experiment: holdup assay; parameters: key: below the threshold = too weak to quantify, mostly under pKd 3.1 to 4; conditions: plain residues with an end cap or a label only (N-terminal biotin on a linker: ado-ado)
Sequence (Q86UL8 772-865): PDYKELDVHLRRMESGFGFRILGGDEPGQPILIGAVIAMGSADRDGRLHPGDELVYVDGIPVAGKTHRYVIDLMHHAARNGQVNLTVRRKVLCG

Row | Binder | pKd
18 | SPDRDRESIV [SCN5A, Q14524] | 3.63

target: TJP1_2, Q07157; experiment: holdup assay; parameters: key: below the threshold = too weak to quantify, mostly under pKd 3.1 to 4; conditions: plain residues with an end cap or a label only (N-terminal biotin on a linker: ado-ado)
Sequence (Q07157 181-274): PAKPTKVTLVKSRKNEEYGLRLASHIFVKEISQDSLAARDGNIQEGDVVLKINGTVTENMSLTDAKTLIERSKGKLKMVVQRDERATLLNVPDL

Row | Binder | pKd
19 | SPDRDRESIV [SCN5A, Q14524] | 3.49

target: T9, LNX2_3, Q8N448; experiment: holdup assay; parameters: key: below the threshold = too weak to quantify, mostly under pKd 3.1 to 4; conditions: plain residues with an end cap or a label only (N-terminal biotin on a linker: ado-ado)
T9 sequence (Q8N448 463-564, limits assumed, looked up): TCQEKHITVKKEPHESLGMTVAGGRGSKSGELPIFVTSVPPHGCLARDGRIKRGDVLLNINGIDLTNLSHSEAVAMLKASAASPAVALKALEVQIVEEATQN

Row | Binder | pKd
20 | SPDRDRESIV [SCN5A, Q14524] | below the threshold

target: T10, DFNB31_2, Q9P202; experiment: holdup assay; parameters: key: below the threshold = too weak to quantify, mostly under pKd 3.1 to 4; conditions: plain residues with an end cap or a label only (N-terminal biotin on a linker: ado-ado)
T10 sequence (Q9P202 274-371, limits assumed, looked up): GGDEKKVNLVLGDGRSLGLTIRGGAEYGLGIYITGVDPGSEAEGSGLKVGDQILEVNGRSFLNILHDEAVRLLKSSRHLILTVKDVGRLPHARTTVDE

Row | Binder | pKd
21 | SPDRDRESIV [SCN5A, Q14524] | below the threshold

target: T11, TJP3_3, O95049; experiment: holdup assay; parameters: key: below the threshold = too weak to quantify, mostly under pKd 3.1 to 4; conditions: plain residues with an end cap or a label only (N-terminal biotin on a linker: ado-ado)
T11 sequence (O95049 375-456, limits assumed, looked up): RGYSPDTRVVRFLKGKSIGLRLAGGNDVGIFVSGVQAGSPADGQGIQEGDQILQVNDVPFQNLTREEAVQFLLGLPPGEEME

Row | Binder | pKd
22 | SPDRDRESIV [SCN5A, Q14524] | below the threshold

target: MAGI2_2, Q86UL8; experiment: holdup assay; parameters: key: below the threshold = too weak to quantify, mostly under pKd 3.1 to 4; conditions: plain residues with an end cap or a label only (N-terminal biotin on a linker: ado-ado)
Sequence (Q86UL8 410-522): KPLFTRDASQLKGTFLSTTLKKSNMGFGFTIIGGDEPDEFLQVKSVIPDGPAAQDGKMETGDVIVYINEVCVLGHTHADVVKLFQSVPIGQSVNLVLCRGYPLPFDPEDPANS

Row | Binder | pKd
23 | SPDRDRESIV [SCN5A, Q14524] | 4.26

target: TJP2_1, Q9UDY2; experiment: holdup assay; parameters: key: below the threshold = too weak to quantify, mostly under pKd 3.1 to 4; conditions: plain residues with an end cap or a label only (N-terminal biotin on a linker: ado-ado)
Sequence (Q9UDY2 24-128): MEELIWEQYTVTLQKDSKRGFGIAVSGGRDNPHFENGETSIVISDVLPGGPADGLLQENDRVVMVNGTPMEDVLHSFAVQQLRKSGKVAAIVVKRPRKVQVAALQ

Row | Binder | pKd
24 | SPDRDRESIV [SCN5A, Q14524] | below the threshold

target: T12, PARD3B_1, Q8TEW8; experiment: holdup assay; parameters: key: below the threshold = too weak to quantify, mostly under pKd 3.1 to 4; conditions: plain residues with an end cap or a label only (N-terminal biotin on a linker: ado-ado)
T12 sequence (Q8TEW8 196-299, limits assumed, looked up): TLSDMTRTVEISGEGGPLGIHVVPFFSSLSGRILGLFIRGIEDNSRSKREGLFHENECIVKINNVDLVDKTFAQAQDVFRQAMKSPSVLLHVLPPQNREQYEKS

Row | Binder | pKd
25 | SPDRDRESIV [SCN5A, Q14524] | below the threshold

target: FRMPD2_1, Q68DX3; experiment: holdup assay; parameters: key: below the threshold = too weak to quantify, mostly under pKd 3.1 to 4; conditions: plain residues with an end cap or a label only (N-terminal biotin on a linker: ado-ado)
Sequence (Q68DX3 770-861): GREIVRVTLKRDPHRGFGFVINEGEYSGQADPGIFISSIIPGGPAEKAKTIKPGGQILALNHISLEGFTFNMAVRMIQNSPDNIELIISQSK

Row | Binder | pKd
26 | SPDRDRESIV [SCN5A, Q14524] | below the threshold
